The values below come from publication PMC6508567, “Noncanonical interactions between serpin and β‐amylase in barley grain improve β‐amylase activity in vitro” (Plant Direct, 2018).

This data set concerns the molecule itself. Briefly: cross-linking; purified proteins in PBS oxidised with 5, 10 and 20 μM CuCl2 for 10 min (disulfide bonds), non-reducing 10% SDS-PAGE, immunoblot; β-amylase alone or mixed with serpin Z4 at 1:2 and 1:5. Background: In western blotting, separated proteins are transferred to a membrane and probed.

B1: serpin Z4 (natural protein, barley (Hordeum vulgare) cv. Harrington, UniProt P06293 1-399, looked up)
chain: MATTLATDVRLSIAHQTRFALRLRSAISSNPERAAGNVAFSPLSLHVALSLITAGAAATRDQLVAILGDGGAGDAKELNALAEQVVQFVLANESSTGGPRIAFANGIFVDASLSLKPSFEELAVCQYKAKTQSVDFQHKTLEAVGQVNSWVEQVTTGLIKQILPPGSVDNTTKLILGNALYFKGAWDQKFDESNTKCDSFHLLDGSSIQTQFMSSTKKQYISSSDNLKVLKLPYAKGHDKRQFSMYILLPGAQDGLWSLAKRLSTEPEFIENHIPKQTVEVGRFQLPKFKISYQFEASSLLRALGLQLPFSEEADLSEMVDSSQGLEISHVFHKSFVEVNEEGTEAGAATVAMGVAMSMPLKVDLVDFVANHPFLFLIREDIAGVVVFVGHVTNPLISA
notes: serpin Z4 of barley (Hordeum vulgare) cv; Harrington, cloned from cDNA into pET28-(a); In one direction of the MST experiment the protein carried an NHS-ester fluorescent dye; in one direction of the SPR experiment it was amine-coupled to a CM5 chip; source: E. coli SHuffle cells, purified (Ni-NTA, gel filtration on Superdex 200 Increase)
For the protein B1, the binding result is reported as “binds”.
